Measured values published in article PMC8184810, “Light regulates stomatal development by modulating paracrine signaling from inner tissues”.

T1: MBP-HY5 (Arabidopsis thaliana, UniProt O24646 1-168)
T1 sequence: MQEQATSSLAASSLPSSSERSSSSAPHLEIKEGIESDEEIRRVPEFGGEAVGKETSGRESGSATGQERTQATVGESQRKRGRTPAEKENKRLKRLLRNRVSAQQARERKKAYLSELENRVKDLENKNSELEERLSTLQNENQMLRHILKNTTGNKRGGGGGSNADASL


How the values were obtained:
MBP-HY5 [1] = target: T1, MBP-HY5; test: EMSA; EMSA: 20 fmol biotin probe, ~1 ug protein, 20 ul binding buffer (composition not given), on ice 1 h; pull-down: 10 mM Tris-HCl pH 7.5, 50 mM KCl, 5 mM MgCl2, 2.5% glycerol, 0.05% NP-40, 5 ug salmon sperm DNA, 10 ug BSA, 4 C 1 h; conditions: protein: recombinant; tags: N-terminal MBP (pETG-40A); chain copies: 2; blunt
MBP-HY5 [2] = target: T1, MBP-HY5; test: pull-down; 5 mM MgCl2; salmon sperm DNA; EMSA: 20 fmol biotin probe, ~1 ug protein, 20 ul binding buffer (composition not given), on ice 1 h; pull-down: 10 mM Tris-HCl pH 7.5, 50 mM KCl, 5 mM MgCl2, 2.5% glycerol, 0.05% NP-40, 5 ug salmon sperm DNA, 10 ug BSA, 4 C 1 h; conditions: protein: recombinant; tags: N-terminal MBP (pETG-40A); chain copies: 2; blunt

Binder | binding result (MBP-HY5 [1]) | binding result (MBP-HY5 [2])
P2 (STOMAGEN promoter) (dsDNA) DNA 1: TCCTCTGTATTTTCAAACTCTTATCTCTACGTGTGCACAAACCTCACCATTAGATGATAA DNA 2: TTATCATCTAATGGTGAGGTTTGTGCACACGTAGAGATAAGAGTTTGAAAATACAGAGGA | binds | –
mP2 (Z-box mutated) (dsDNA) DNA 1: TCCTCTGTATTTTCAAACTCTTATCTCAAAAAATGCACAAACCTCACCATTAGATGATAA DNA 2: TTATCATCTAATGGTGAGGTTTGTGCATTTTTTGAGATAAGAGTTTGAAAATACAGAGGA | – | no binding
